Results from patent US20260108618A1.

Key:
Experiment in all cases: cell-based or functional assay
[1] = target: Neuraminidase of influenza A/Hawaii/70/2019 (H1N1)pdm09 (influenza A virus A/Hawaii/70/2019 (H1N1)pdm09)
[2] = target: Neuraminidase of influenza A/Hong Kong/2671/2019 (H3N2) (influenza A virus A/Hong Kong/2671/2019 (H3N2))
[3] = target: Neuraminidase of influenza B/Phuket/3073/2013 (Yamagata) (influenza B virus B/Phuket/3073/2013 (Yamagata))
[4] = target: Neuraminidase of influenza B/Washington/02/2019 (Victoria) (influenza B virus B/Washington/02/2019 (Victoria))
[5] = target: neuraminidase of influenza A/CA/7/2009 (H1N1pdm) (Influenza A virus)
[6] = target: neuraminidase of influenza A/Hong Kong/1/1968 (H3N2) (Influenza A virus) (UniProt Q91MA2)
[7] = target: neuraminidase of influenza B/Florida/4/2006 (Yamagata) (Influenza B virus)
[8] = target: neuraminidase of influenza B/Malaysia/2506/2004 (Victoria) (Influenza B virus)

neuraminidase of influenza A/Hong Kong/1/1968 (H3N2) (Influenza A virus), sequence (Q91MA2 whole entry): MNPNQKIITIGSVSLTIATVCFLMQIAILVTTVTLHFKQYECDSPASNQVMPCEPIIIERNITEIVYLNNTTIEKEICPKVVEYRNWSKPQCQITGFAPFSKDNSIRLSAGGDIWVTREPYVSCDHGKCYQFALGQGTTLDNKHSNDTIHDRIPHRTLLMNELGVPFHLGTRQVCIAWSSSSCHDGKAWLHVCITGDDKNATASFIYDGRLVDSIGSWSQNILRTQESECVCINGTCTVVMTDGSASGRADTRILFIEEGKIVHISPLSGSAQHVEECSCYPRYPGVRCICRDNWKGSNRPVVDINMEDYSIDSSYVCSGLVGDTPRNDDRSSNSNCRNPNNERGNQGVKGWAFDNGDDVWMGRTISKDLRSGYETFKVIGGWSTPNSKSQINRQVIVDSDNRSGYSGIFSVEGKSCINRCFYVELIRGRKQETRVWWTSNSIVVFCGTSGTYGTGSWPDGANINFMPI

hIgG1 Fc (from UniProt P01857 84-329)
> 1000 nM: enzyme-linked lectin assay (ELLA) (IC50), fetuin substrate, live virus [1] | enzyme-linked lectin assay (ELLA) (IC50), fetuin substrate, live virus [2] | enzyme-linked lectin assay (ELLA) (IC50), fetuin substrate, live virus [3] | enzyme-linked lectin assay (ELLA) (IC50), fetuin substrate, live virus [4] | enzyme-linked lectin assay (ELLA) IC50, fetuin substrate, virus [5] | enzyme-linked lectin assay (ELLA) IC50, fetuin substrate, virus [6] | enzyme-linked lectin assay (ELLA) IC50, fetuin substrate, virus [7] | enzyme-linked lectin assay (ELLA) IC50, fetuin substrate, virus [8]
